Experiment: soluble on expression in E. coli; label from the status in PepcDB or PDB records

Sequence	soluble on expression in E. coli
MSLASIMFGVFVHALECSRPVGLVQAKLLLWTLTASIMVIILSEEGEVAEQLEFFPVQSPCRGICQSDERGFCRGCFRSRDERFNWNKMSDGEKQEVLRLCRQRLMRKLRANKPASSDEPEQPSLFEGHHHHHH	not soluble
MGSRASTLLRDEELEEIKKETGFSHSQITRLYSRFTSLDKGENGTLSREDFQRIPELAINPLGDRIINAFFSEGEDQVNFRGFMRTLAHFRPIEDNEKSKDVNGPEPLNSRSNKLHFAFRLYDLDKDDKISRDELLQVLRMMVGVNISDEQLGSIADRTIQEADQDGDSAISFTEFVKVLEKVDVEQKMSIRFLHKLAAALEHHHHHH	soluble
MFAMTSIAVIGGGKIGEALISGLVASGMSPKDIHVTNRNAERAQELKERYGVLTFLENIAAVDDVDMVFLCVKPQQVIPVVEEIADVVDNNTSTTIVSMAAGVTNAMIEESLAAGSPVIRVMPNTPMLVGKGMSVVAPGRYADEDTVASLTQLLEAVGSVEVIEESSMDAVVALSGSSPAYLFLMVEALIDAGVFLGLPRDKAKNLAVSSFAGAATMLEQTGEEPAVLRANVSSPGGTTIAAIREFEESGLRAAVYRAATAAATRNSSLG	not soluble
MDGKLLWSFNSGDAVRSVAISRDGDYVATGSANNYVYLLDSEGKTLWGKKTGSLINSVTMTPNAYYVAAGGSNYNVYLFDRKGEFSWMHNPGYWVSSVSLSSNGSHLAAGSFDDRIYLFNLTGAKLWDYQVKDDVYAVEIAPDSSFIAAGSWDDSIYALNMSGKELEHHHHHH	not soluble
MAHHHHHHMLTKDADCEKSQQQKLEEDIKSPCTPSFHWVSDEDPKSDRATNHGCAKPLDWSPQTPETPPMSVAELRVTTVADTSETETTSESATHGNELRANEGESSASGTLEKPAGGVAAAGGAAPAAVPQKTEERGSSVPLKHKRSYGASDAVSSSSCHVDALGDLAGSVRQHHPTSTHTLDTSSSNGVGDAAKHAVAAGHVDESLPPPLSGVFFPFTACDAVTTASLVTLISSYCDVLTLVQLMRVNRSAHLLATSDAVWKPLLVSMNLPPLLAAYERDNDYYDFFVKDIITTRALHGHYTFQAANAASGSRESVSTTSGSRSAVMNRNYVSRDEDSLQDDIFNIASLQLLISAASLGQSNHLIGRVQLLITYKNESMEVLQGSCRFSVHRRCFSLCCSAFGTVKRGPVFTVAVATVTKPWANEGFQHFREHKNGIRLVMAPVLWEGPSPGSQITENDILVVSRPKPVPSLITSTTGSAAANSSLGAPTASRG	not soluble
RVARGWGGCGACGGSGIVGQGKGEPSRRRGRAAGRPQSMERGKMAEAESLETAAEHERILREIESTDTACIGPTLRSVYDGEEHGRFMEKLETRIRNHDREIEKMCNFHYQGFVDSITELLKVRGEAQKLKNQVTDTNRKLQHEGKELVIAMEELKQCRLQQRNISATVDKLMLCLPVLEMYSKLRDQMKTKRHYPALKTLEHLEHTYLPQVSHYRFCKVMVDNIPKLREEIKDVSMSDLKDFLESIRKHSDKIGETAMKQAQQQRNLDNIVLQQPRIGSKRKSKKDAYIIFDTEIESTSPKSEQDSGILDVEDEEDDEEVPGAQDLVDFSPVYRCLHIYSVLGARETFENYYRKQRRKQARLVLQPPSNMHETLDGYRKYFNQIVGFFVVEDHILHTTQGLVNRAYIDELWEMALSKTIAALRTHSSYCSDPNLVLDLKNLIVLFADTLQVYGFPVNQLFDMLLEIRDQYSETLLKKWAGIFRNILDSDNYSPIPVTSEEMYKKVVGQFPFQDIELEKQPFPKKFPFSEFVPKVYNQIKEFIYACLKFSEDLHLSSTEVDDMIRKSTNLLLTRTLSNSLQNVIKRKNIGLTELVQIIINTTHLEKSCKYLEEFITNITNVLPETVHTTKLYGTTTFKDARHAAEEEIYTNLNQKIDQFLQLADYDWMTGDLGNKASDYLVDLIAFLRSTFAVFTHLPVSGSCSYFVLYI	soluble
MSLTDIHPPLLLIDTSTRVCSVAVAAAGTIISQRVSHVGNSHAANIGVFVQEVLTEAIGLGVKPSIVALSSGPGSYTGLRIGSSIAKGICFGLGIPLVSVPTLELIAEAARPLSQPDWLICPMIDARRMEVYTALFDSKGKALTDTLPLVIDNDSFSEELKKRNILFVGDGAEKCRPFLSHPNAHFSKNVIYPLALYMLHPALSRIETSSYEDVAYWEPFYLKEFVATVAKNKVIPRTQTTEGHHHHHH	not soluble
MLPSWKAFKAHNILRILTRFQSTKIPDAVIGIDLGTTNSAVAIMEGKVPRIIENAEGSRTTPSVVAFTKDGERLVGEPAKRQSVINSENTLFATKRLIGRRFEDAEVQRDINQVPFKIVKHSNGDAWVEARNRTYSPAQIGGFILNKMKETAEAYLAKSVKNAVVTVPAYFNDAQRQATKDAGQIIGLNVLRVVNEPTAAALAYGLDKSEPKVIAVFDLGGGTFDISILDIDNGIFEVKSTNGDTHLGGEDFDIYLLQEIISHFKKETGIDLSNDRMAVQRIREAAEKAKIELSSTLSTEINLPFITADAAGPKHIRMPFSRVQLENITAPLIDRTVDPVKKALKDARITASDISDVLLVGGMSRMPKVADTVKKLFGKDASKAVNPDEAVALGAAIQAAVLSGEVTDVLLLDVTPLSLGIETLGGVFTKLIPRNSTIPNKKSQIFSTAASGQTSVEVKVFQGERELVKDNKLIGNFTLAGIPPAPKGTPQIEVTFDIDANGIINVSAKDLASHKDSSITVAGASGLSDTEIDRMVNEAERYKNQDRARRNAIETANKADQLANDTENSIKEFEGKLDKTDSQRLKDQISSLRELVSRSQAGDEVNDDDVGTKIDNLRTSSMKLFEQLYKNSDNPETKNGRENK	not soluble
MKKKSNLTLFMKQLIRSLKEEERFSTAHIYQSTLNAFMLFCKTDAIRFNQMERSRLKQFENHLRNKGCTWNTVSTYMRTLRSIYNKAVDDGLAEEKPRLFRHVYTGVKANTKRALDAKDMSKLLSASLPRPLPQSMKESRAWITLMFLLRGMPFVDLAHLRKTDLQDSVISYRRHKTGALLTVEIPPAAMNLIKRYQNTDSASPYLLPILSGNRKSEEEYAEYQHALRKLNYDLKQLAVYCGIKLNVSSYTSRHTWATLAKYCHFSEQLICDALGHSSTKVTETYLKSFKNDELDRANKVIINHINISI	not soluble
ARPCIPKSFGYSSVVCVCNATYCDSFDPPTFPALGTFSRYESTRSGRRMELSMGPIQANHTGTGLLLTLQPEQKFQKVKGFGGAMTDAAALNILALSPPAQNLLLKSYFSEEGIGYNIIRVPMASCDFSIRTYTYADTPDDFQLHNFSLPEEDTKLKIPLIHRALQLAQRPVSLLASPWTSPTWLKTNGAVNGKGSLKGQPGDIYHQTWARYFVKFLDAYAEHKLQFWAVTAENEPSAGLLSGYPFQCLGFTPEHQRDFIARDLGPTLANSTHHNVRLLMLDDQRLLLPHWAKVVLTDPEAAKYVHGIAVHWYLDFLAPAKATLGETHRLFPNTMLFASEACVGSKFWEQSVRLGSWDRGMQYSHSIITNLLYHVVGWTDWNLALNPEGGPNWVRNFVDSPIIVDITKDTFYKQPMFYHLGHFSKFIPEGSQRVGLVASQKNDLDAVALMHPDGSAVVVVLNRSSKDVPLTIKDPAVGFLETISPGYSIHTYLWHRQ	soluble
MGSDKIHHHHHHQPIPDMAKAQTAALNSITAADLSAYLHIVASDSMEGRATGEAGQKRTALYLADKFKEFGLSPAVPTAVDKSYFQKFSLVEKTWKEVWLKVGNKQKEFLKDFYAYGDVQLPEATAMKIVCAGYGIEARNYSDYTNLDVKDKGVIIFTGEPFKDSVSLVTKTKQSSTWANDWRAKADLAYKKGAKAVFIIVGNTDTDFETRLAALKDHLNAPSMAFTHKKKASAFFVPASLAAEMLKSTPDALASYKKNRTGTNTPYPFKSAKVIAKAGVTERTVETENVLAVIEGSRYPEEIVVLTAHYDHLGIENGQICYGADDDGSGTVALLEIAQAFSIAKSLGHGPARTILFMPVTGEERGLMGSEYYTDKPVFPLKNTVADLNIDMIGRVDAAHPNVIDENYVYIIGDNRLSSELHTLSENANTGWQGPKIVLDYTYNSFDDPNRFYYRSDHYNFAKNNIPVIFYFSGIHADYHKPTDTVDKIRFDKMAKITQLVFLTAWQLANMDHRLVVDRTE	not soluble
MLVLPKGVRHMPAYLSRAIQDALVEDVRSIVQQAPLFVPAMPRTGKEMSVRMTNCGPLGWVTDKERGYRYQPTHPLTGEPWPPIPESLLDLWRQVSGYPNPPEACLINFYTADAKMGLHQDRDEADFSAPVVSVSLGDDCLFRVGQTTRDGATKSFRLKSGDVVVLGGEGRLAFHGVDRIYPSTSALLKNGGRINLTLRRVTKPHEECLTSRSLEHHHHHH	soluble
PTSSTTATLVMGDALAVALLKARGFTAEDFALSHPGGALGRKLLLRVNDIMHTGDEIPHVKKTASLRDALLEVTRKNLGMTVICDDNMMIEGIFTDGDLRRVFDMGVDVRRLSIADVMTPGGIRVRPGILAVEALNLMQSRHITSVMVADGDHLLGVLHMHDLLRA	not soluble
MIVGMSVSLLRGRTVRRVLSVLVVAGLLGAGVTGCSNDAGAKTENTVDASPTPTNTPTDGDGDSAEEPAQDTPAEPEQRPVPEEPEAMKTGDKAGAIAAATFFVEVIEYSLHSNNPELLEKYSYENCTNCNNLIETIAYRSKNGYESLETSYVINSVGTPSYVGTNHIIWGVPMSITSKEQLNRKESEQIETNKLTIYVTYENGEWDLTSIDPDGGQSTK	not soluble
MAPSQPTQNAQTVSSVMTETPTYTSSSRSVESTAGTIAASEEATMTLLENSSGDPGSDSGGARYSLNSLKVSEQAAANAVLKAVLNDVSYQEFADSSYLEITGTPSADGTWGISFGGPSESASVEFSDGSISFSPVDMTVPATRLPQMGAFYETLTEEQLGMLETGLAVSTVDSSQQEMLLDLVSNSIGLADTETTATAISKIRATLSETYLFGTPDGLTLALSGPHVDFEVSHQGSTAKITYRDPSTDTLTAEDRVDTASVAAAPPEVVLEHHHHHH	soluble
MQLNDSTLFRQQAFIDGDWRDARGGDVIPVSNPANGKPLGNVPKMGAEETRDAINAANRALPAWRALTAKERANILRRWFNLMMEHQDDLARLMTLEQGKPLAEAKGEISYAASFIEWFAEEGKRIYGDTIPGHQADKRLLVIKQPIGVTAAITPWNFPSAMITRKAGPALAAGCTMVLKPASQTPFSALALAELAQRAGIPAGVFNVVTGSAGDIGGELTSNPLVRKLSFTGSTEIGRQLMEQCAKDIKKVSLELGGNAPFIVFDDADLDKAVEGALASKFRNAGQTCVCANRLYVQDGVYDRFAEKLNQAVNKLAVGDGLQADVAIGPLIDEKAVAKVQEHIADALEKGARVITGGEAHKLGGNFFQPTILADVPDNAKVAKEETFGPLAPLFRFSDEADVIRQANDTEFGLAAYFYARDLSRVFRVGEALEYGIVGINTGIISNEVAPFGGIKASGLGREGSKYGIEDYLEIKYMCIGL	not soluble
MGSDKIHHHHHHPSEEVAKSGNPVFEGWYADPEGIIYGDTYWIYPTTSDLYEKQTFFDCFSSKDLVSWTKHTAILDTAEVKWAKIAMWAPSVINKDGKYYLFFGANDVHEGEIGGIGVAVSDRPEGPYKDLLGKPLINEIVNGAQPIDQFVFHDADNDEYYMYYGGWKHCNMVRLNKDFTGLIPFEDGTIYKEVTPKDYVEGPFMFKKNGKYYFMWSEGGWTGPDYKVAYAISDSPFGPFNRIGEVLRQNFDMANGAGHHSIMHVPNSEDYYIVYHRRPAGVKTRDHRETCIEKMTFNEEGLINPVEITTEGVEARTIQ	not soluble
MGHHHHHHSHMANSAGSMANSAGSDKGEQYTLAVGHSLPPALESKLNEIDEISVKTFAKPEEAVDEGKADAYLNVPKEFDSYVNSMTPFKVDVYGNSIDQGSSNAMQLVQSALDQYKNEIVQQRLTNKHIDQSVIQPFTIQQKEADEEKGTSAI	not soluble
